Source: patent US20170158755A1 (PROTHENA BIOSCIENCES, published 2017)

How the values were obtained:
mouse His-laminin-α4 = biological target: T1, mouse His-laminin-α4 (mouse, UniProt P97927 826-1816, limits assumed); assay: ELISA hMCAM-Fc capture blocking assay; antibody pre-incubated with mouse LAMA4-His; blocked partner: captured hMCAM-Fc
T1 construct: Bought His-tagged recombinant protein; also called Murine LAMA4; recombinant mouse LAMA4-His
T1 sequence (looked up): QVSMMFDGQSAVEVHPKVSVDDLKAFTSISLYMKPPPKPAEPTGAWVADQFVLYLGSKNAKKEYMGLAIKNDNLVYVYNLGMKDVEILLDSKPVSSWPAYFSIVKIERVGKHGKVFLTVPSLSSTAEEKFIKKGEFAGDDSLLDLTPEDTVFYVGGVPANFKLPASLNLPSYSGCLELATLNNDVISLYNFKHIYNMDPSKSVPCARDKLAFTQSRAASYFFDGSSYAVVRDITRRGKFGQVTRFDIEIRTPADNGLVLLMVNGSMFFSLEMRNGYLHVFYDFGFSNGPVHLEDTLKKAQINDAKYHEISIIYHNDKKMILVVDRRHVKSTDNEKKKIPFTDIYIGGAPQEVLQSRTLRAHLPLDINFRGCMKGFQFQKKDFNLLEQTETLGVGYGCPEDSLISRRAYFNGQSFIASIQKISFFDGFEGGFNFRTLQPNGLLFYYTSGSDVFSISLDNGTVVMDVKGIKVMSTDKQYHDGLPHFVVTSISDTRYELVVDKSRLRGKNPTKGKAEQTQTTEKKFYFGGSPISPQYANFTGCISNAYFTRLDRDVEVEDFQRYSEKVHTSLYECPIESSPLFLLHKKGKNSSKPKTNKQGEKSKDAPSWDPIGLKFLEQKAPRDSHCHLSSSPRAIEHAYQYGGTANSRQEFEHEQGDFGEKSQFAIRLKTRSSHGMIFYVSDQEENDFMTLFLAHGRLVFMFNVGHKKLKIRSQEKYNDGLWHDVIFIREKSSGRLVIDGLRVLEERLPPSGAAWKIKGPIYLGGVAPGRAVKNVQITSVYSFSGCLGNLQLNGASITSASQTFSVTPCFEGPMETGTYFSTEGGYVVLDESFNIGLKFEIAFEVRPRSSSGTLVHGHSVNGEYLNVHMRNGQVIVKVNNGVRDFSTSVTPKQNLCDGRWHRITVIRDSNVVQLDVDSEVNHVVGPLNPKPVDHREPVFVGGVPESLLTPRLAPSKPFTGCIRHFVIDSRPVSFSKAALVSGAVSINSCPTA

[1] = biological target: T2, human LAMA4 G domain (LG1-5) displayed on 293 cells (human, UniProt Q16363 830-1821); assay: flow cytometry on 293 cells displaying LAMA4 G-domain variants; % binding
T2 construct: the vector's tags and membrane anchor are not written here; also called LAMA4-displaying human 293 cells; full length
T2 sequence: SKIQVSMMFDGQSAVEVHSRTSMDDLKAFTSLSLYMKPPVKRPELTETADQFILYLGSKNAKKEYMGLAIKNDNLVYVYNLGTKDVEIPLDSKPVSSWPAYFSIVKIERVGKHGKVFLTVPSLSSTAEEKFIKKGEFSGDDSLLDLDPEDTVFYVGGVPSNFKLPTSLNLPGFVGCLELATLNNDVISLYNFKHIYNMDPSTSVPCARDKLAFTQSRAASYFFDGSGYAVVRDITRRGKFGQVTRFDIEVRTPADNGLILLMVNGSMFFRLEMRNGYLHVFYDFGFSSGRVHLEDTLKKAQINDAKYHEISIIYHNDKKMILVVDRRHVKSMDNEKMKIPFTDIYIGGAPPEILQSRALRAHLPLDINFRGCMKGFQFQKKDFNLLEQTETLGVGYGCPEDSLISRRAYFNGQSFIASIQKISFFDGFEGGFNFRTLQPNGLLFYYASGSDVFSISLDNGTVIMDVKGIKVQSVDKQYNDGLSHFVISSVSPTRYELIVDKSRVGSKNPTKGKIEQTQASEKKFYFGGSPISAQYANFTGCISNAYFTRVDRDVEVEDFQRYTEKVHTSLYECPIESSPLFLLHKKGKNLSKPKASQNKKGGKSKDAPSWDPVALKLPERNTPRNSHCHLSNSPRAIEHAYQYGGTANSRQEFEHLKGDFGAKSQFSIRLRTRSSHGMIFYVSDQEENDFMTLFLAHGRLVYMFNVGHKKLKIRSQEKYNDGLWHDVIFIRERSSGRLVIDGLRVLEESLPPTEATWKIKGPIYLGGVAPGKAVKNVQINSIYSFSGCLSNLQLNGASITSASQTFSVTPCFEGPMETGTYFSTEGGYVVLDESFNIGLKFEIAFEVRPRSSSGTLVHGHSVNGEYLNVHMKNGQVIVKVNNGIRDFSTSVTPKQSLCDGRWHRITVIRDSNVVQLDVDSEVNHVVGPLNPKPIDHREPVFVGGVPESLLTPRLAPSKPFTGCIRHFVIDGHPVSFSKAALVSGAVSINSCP
Description: (§1) LGde1 has a full-length G domain (i.e., LG1-5) with LG1 deleted, LGde2 has a full-length G domain with LG2 deleted, and LGde3 has a full-length G domain with LG3 deleted. Recombinant MCAM-Fc protein was able to specifically bind 293 cells expressing LAMA4 variants LG1-5, LG1-3, and LGde 1 (LG23), but not 293 cells expressing LAMA 4 variants LG4-5, LGde2 (LG13), or LGde3 (LG12).

[2] = biological target: T3, human LAMA4 LG1-3 modules displayed on 293 cells (human, UniProt Q16363 830-1430); assay: as above
T3 construct: pDisplay construct on 293 cells; vector tags and anchor not written here
T3 sequence: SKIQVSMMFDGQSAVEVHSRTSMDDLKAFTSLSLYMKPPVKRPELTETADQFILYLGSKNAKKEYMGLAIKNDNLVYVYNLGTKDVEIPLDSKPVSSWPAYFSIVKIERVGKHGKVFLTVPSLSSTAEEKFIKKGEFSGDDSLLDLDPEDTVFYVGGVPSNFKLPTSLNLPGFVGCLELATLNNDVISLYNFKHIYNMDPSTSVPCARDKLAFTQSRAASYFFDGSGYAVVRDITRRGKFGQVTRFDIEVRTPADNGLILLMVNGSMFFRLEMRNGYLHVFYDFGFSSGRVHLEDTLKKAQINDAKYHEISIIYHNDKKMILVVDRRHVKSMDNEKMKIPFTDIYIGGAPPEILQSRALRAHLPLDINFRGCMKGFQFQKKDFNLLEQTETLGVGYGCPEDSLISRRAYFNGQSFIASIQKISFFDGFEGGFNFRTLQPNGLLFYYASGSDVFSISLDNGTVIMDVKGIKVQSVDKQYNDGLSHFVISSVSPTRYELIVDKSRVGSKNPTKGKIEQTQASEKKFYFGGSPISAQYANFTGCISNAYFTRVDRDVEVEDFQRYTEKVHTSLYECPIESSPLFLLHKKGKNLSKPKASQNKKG
Description: as §1

B1: mouse monoclonal antibody 19C12 (antibody, V domains shown)
VH: QVQLQQSGAELVKPGASVKISCKASGYAFSTYWMNWVKQRPGEGLEWIGQIYPGDGDTNYNGKFKGKATLTADKSSSTAYMQLSSLTSEDSAVYFCARSDGYYDYWGQGTTLTVSS
VL: NIVLTQSPASLAVSLGQRATISCRASESVDSYGTSFMHWYQQKPGQPPKLLICLASSLESGVPARFSGSGSRTDFTLTIDPVEADDAATYYCQQNNEDPPTFGAGTKLELKR
notes: Mouse hybridoma antibody; Mouse IgG2b was used as its isotype control; also called m19C12
Mouse His-laminin-α4
  IC50 (read off the curve): ~0.1 µg/mL

B2: mouse MCAM-Fc fusion protein (Fc fusion, UniProt Q8R2Y2 24-563, looked up)
chain: VPGEEKQPVPTPDLVEAEVGSTALLKCGPSRASGNFSQVDWFLIHKERQILIFRVHQGKGQREPGEYEHRLSLQDSVATLALSHVTPHDERMFLCKSKRPRLQDHYVELQVFKAPEEPTIQANVVGIHVDRQELREVATCVGRNGYPIPQVLWYKNSLPLQEEENRVHIQSSQIVESSGLYTLKSVLSARLVKEDKDAQFYCELSYRLPSGNHMKESKEVTVPVFYPAEKVWVEVEPVGLLKEGDHVTIRCLTDGNPQPHFTINKKDPSTGEMEEESTDENGLLSLEPAEKHHSGLYQCQSLDLETTITLSSDPLELLVNYVSDVQVNPTAPEVQEGESLTLTCEAESNQDLEFEWLRDKTGQLLGKGPVLQLNNVRREAGGRYLCMASVPRVPGLNRTQLVSVGIFGSPWMALKERKVWVQENAVLNLSCEASGHPQPTISWNVNGSATEWNPDPQTVVSTLNVLVTPELLETGAECTASNSLGSNTTTIVLKLVTLTTLIPDSSQTTGLSTLTVSPHTRANSTSTEKKLPQPESKGVV
notes: extracellular domain; Made in house; also called mMCAM-Fc; 650-conjugated mouse MCAM-Fc; not shown: human IgG1 (Fc part of the fusion)
[1]
  binding result: binds
[2]
  binding result: binds
